One block for each molecule: values may come before it.
Key:
MDH = tested on: T1, MDH; details: read-out: Free enzymes / Km; free enzyme; 1x TBS with 1 mM MgCl2, pH 7.5 (most assays; details in supplement)
T1 construct: gene MDH2

LDH = tested on: T2, LDH; details: read-out: Free enzymes / Km; free enzyme; 1x TBS with 1 mM MgCl2, pH 7.5 (most assays; details in supplement)
T2 construct: gene LDHA

[1] = tested on: O=c1ccc2nc3ccc(O[C@@H]4O[C@H](CO)[C@H](O)[C@H](O)[C@H]4O)cc3oc-2c1; experiment: purified protein; details: free enzyme; kcat not calibrated; conditions in supplement
[2] = substrate: CCn1c(=NN=c2sc3cc(S(=O)(=O)O)ccc3n2CC)sc2cc(S(=O)(=O)O)ccc21; experiment: Michaelis-Menten kinetics, plate reader absorbance; format: biochemical, Armoracia rusticana; details: free enzyme, 1x TBS with 1 mM MgCl2, pH 7.5 (most assays; details in supplement)
Source text: Michaelis-Menten kinetics, plate reader absorbance on HRP

Km (MDH): 180 ± 50 µM | Km (LDH): 7.2 ± 1.3 µM
Molecule: NC(=O)C1=CN([C@@H]2O[C@H](COP(=O)(O)OP(=O)(O)OC[C@H]3O[C@@H](n4cnc5c(N)ncnc54)[C@H](O)[C@@H]3O)[C@@H](O)[C@H]2O)C=CC1 [NADH]

Molecule: β-Gal (Escherichia coli K-12)
Km [1]: 58.7 ± 16.0 µM | kcat [1]: 8.5 ± 0.6 s⁻¹

B1: HRP (Armoracia rusticana) (protein)
chain: QLTPTFYDNSCPNVSNIVRDTIVNELRSDPRIAASILRLHFHDCFVNGCDASILLDNTTSFRTEKDAFGNANSARGFPVIDRMKAAVESACPRTVSCADLLTIAAQQSVTLAGGPSWRVPLGRRDSLQAFLDLANANLPAPFFTLPQLKDSFRNVGLNRSSDLVALSGGHTFGKNQCRFIMDRLYNFSNTGLPDPTLNTTYLQTLRGLCPLNGNLSALVDFDLRTPTIFDNKYYVNLEEQKGLIQSDQELFSSPNATDTIPLVRSFANSTQTFFNAFVEAMDRMGNITPLTGTQGQIRLNCRVVNSNS
notes: 44 kDa
Km [2]: 2,600±400 μM | kcat [2]: 59 ± 5 s⁻¹
